Experimental data reported in patent publication US8470599B2, “Renal progenitor cells from embryonic stem cells” (The Regents of the University of Michigan, priority 2005, dated 2013).

Tested on: EB derived cells in E12.5 cultured kidney rudiments
Experiment: Injection of EB derived cells into E12.5 cultured kidney rudiments, lacZ / laminin / LTA staining
Type: cell-based, mouse
Conditions: for contribution to developing tubules: compared to untreated EB cells, rudiments 4 or 5 days after injection
Procedure: Cryosections from kidney rudiments were stained for lacZ expression (A & C) and with anti-laminin antibodies (B & D). […] C & D) Many lacZ positive cells from control EBs were found in large and small aggregates (arrows) that remained mesenchymal in appearance and were not surrounded by laminin containing basement membranes. Some blue cells from control EBs were also found in tubules. Magnification bars are 100 microns.
E12.5 kidney rudiments were injected with RA7 treated EB cells (A-F) or control EB cells (G & H) and stained for lacZ, laminin, and LTA binding. […] Arrows point to glomerular tufts. B) Laminin staining of same tissue as in A. C & D) Co-localization of lacZ positive cells in developing proximal tubules (arrows) that also stain with LTA lectin (green) and are surrounded by laminin containing basement membranes (red). E & F) Another developing proximal tubule derived from RA7 treated EB cells (arrow) stained as above. G & H) Many control EB cells localize to interstitial and peripheral mesenchyme (arrows), though a small number of lacZ positive cells are also found in tubules.
This example describes cell culture and microinjection techniques utilized in experiments conducted during the course of the present invention. Mouse ES cells (R26) were grown in high glucose DMEM (GIBCO BRL), 10% fetal bovine serum (Atlanta Biologicals), 0.1 mM β-mercaptoethanol (Sigma), 4 mM glutamine (GIBCO BRL), 20 unit/ml PEN/STREP (GIBCO BRL), 0.1 mg/ml G418 (GIBCO BRL), and 10^3 unit/ml rLIF (Chemicon) on a 0.1% gelatin-coated tissue culture plate at 37° C. CO2 incubator for 2 days. The ES cells were transferred using 0.05% trypsin plus 0.53 mM EDTA (GIBCO BRL) to a 100-mm bacteriological petri dish (Falcon) to induce embryoid body (EB) formation. The EB suspension was cultured in the same medium without rLIF for 2 days and then transferred to 60-mm tissue culture plates coated with 0.1% gelatin. Each 60-mm tissue culture plate contained about 100 EBs. […]

Molecule | contribution to developing tubules | ability of EB cells to contribute to tubules in vitro (addition of 100 ng/ml bmp4)
bmp-7: growth factor (R & D Systems), third component of the nephrogenic cocktail (protein, UniProt P18075 293-431, looked up) Bone morphogenetic protein 7: STGSKQRSQNRSKTPKNQEALRMANVAENSSSDQRQACKKHELYVSFRDLGWQDWIIAPEGYAAYYCEGECAFPLNSYMNATNHAIVQTLVHFINPETVPKPCCAPTQLNAISVLYFDDSSNVILKKYRNMVVRACGCH | enhanced | 
bmp4: growth factor (R & D Systems) added to retinoic acid and activin-a treated EBs (protein, UniProt P12644 293-408, looked up) Bone morphogenetic protein 4: SPKHHSQRARKKNKNCRRHSLYVDFSDVGWNDWIVAPPGYQAFYCHGDCPFPLADHLNSTNHAIVQTLVNSVNSSIPKACCVPTELSAISMLYLDEYDKVVLKNYQEMVVEGCGCR | did not integrate | completely inhibited
